The source of these data is paper PMC9884143 (The Journal of Biological Chemistry, 2023).

Experiment [1] has as its target SARS-CoV-2 Spike receptor-binding domain (RBD), B.1.1.529 (Omicron) variant (SARS-CoV-2, Omicron B.1.1.529 (BA.1 RBD), strain).
In experiment [2] the target is SARS-CoV-2 Spike receptor-binding domain (RBD), Delta variant (SARS-CoV-2, Delta (B.1.617.2; L452R, …, strain).

B1: CoV2-YD-35 (VHH)
VHH: DVQLVESGGGLVQAGDSLRLSCTASGRTFTTNAMGWFRQAPGKEREFVAAISWSYGTTYYSDPVEGRFTISRSNAKNTVYLQMNSLKPDDTAVYYCTLRSRFNAAAWTTEAAFDYWGQGTQVTVS
On to B1, for which the dissociation constant (Kd) worked out at 0.465 nM in experiment [1] and 0.185 nM in experiment [2].

B2: CoV2-YD-38 (VHH)
VHH: DVQLVESGGGLVQAGDSLRLSCAASGRTFTTNAMGWFRQAPGKEREFVAAISWNSGTTYYSDPVKGRFTISRDNAKNTVYLQMNSLKPGDTAVYYCTLRSRFNAYAWTTENAFDYWGQGTQVTVS
As for B2, the Kd came to 2.82 nM in experiment [1] and 0.256 nM in experiment [2].

B3: CoV2-YD-37 (VHH)
VHH: DVQLVESGGGLVQAGDSLRLSCTASGRTFTTNAMGWFRQAPGKEREFVAAISWNYDTTYYSDPVEGRFTISRSNAKNTVYLQMNSLKPDDTAVYYCTLRSRFNAAAWTTEAAFDYWGQGTQVTVS
Take B3: the results for the Kd in experiment [1] and in experiment [2] were 1.56 nM and 2.4 nM, respectively.

B4: CoV2-YD-36 (VHH)
VHH: QVQLVESGGGLVQAGDSLRLSCTASGRTFTTNAMGWFRQAPGKEREFVAAITWSYGTTYYSDPVEGRFTISRSNAKNTVYLQMNSLKPDDTAVYYCTLRSRFNAAAWTTEAAFDYWGQGTQVTVS
In the case of B4, the Kd in experiment [1] came out at 0.263 nM; in experiment [2], 0.022 nM.

B5: CoV2-YD-12 (VHH)
VHH: QVQLVESGGGLVQAGGSLRLSCAASGSTFSRLNILWWRQAAGKPREWVATSTDGGTRNYAAAVKGRFTISRDNAKNTVYLQMNSLKPEDTAVYYCYTPDYWGQGTQVTVS
With B5, the Kd in experiment [1] was 0.416 nM.

B6: CoV2-YD-11 (VHH)
VHH: QVQLVESGGGLVQAGGSLRLSCVVSGTTFSRYDMGWYRQAPGKARETVATISRSGTTNYAYFVKGRFTITRDNAKNTVYLQMNSLKPEDTAVYYCYIFGLDYWGQGTQVTVS
Turning to B6, binding in experiment [1] was put at a Kd of 0.721 nM.

B7: CoV2-YD-13 (VHH)
VHH: QVQLVESGGGLVQAGGSLRLSCAASGFTFDDYAIGWFRQAPGKEREGVSCISSSGGFTNYADSVKGRFTISSDNAKNTVYLQMNSLKPEDTAVYYCAVVVNGYGLDEWAYDYWGQGTQVTVS
B7: the equilibrium dissociation constant (Kd) in experiment [1] is 3.64 nM; in experiment [2], 45.4 nM.

B8: CoV2-YD-5 (VHH)
VHH: QVQLVESGGGLVQAGGSLRLSCVASGTTISTYNLLWFRQAPGQQREWVASISSGGDTSYAGSVKGRFTISRDNTENTMYLQMNSLKPEDTAVYYCHGANAAHGMDYWGKGTQVTVS
Consider B8, for which binding in experiment [1] was characterised by a dissociation constant (Kd) of 0.66 nM.

B9: Rescue-1 (VHH)
VHH: DVQLVESGGGLVQAGDSLRLSCTASGRTFTTNAMGWFRQAPGKEREFVAAITWSYGTTYYSDPVEGRFTISRDNAKNTVYLQMNSLKPEDTAVYYCFYERLAWDTSTYWGQGTQVTVS
For the molecule B9, the Kd came out at 7.02 nM in experiment [1] and 14.1 nM in experiment [2].

B10: Rescue-2 (VHH)
VHH: DVQLVESGGGLVQAGDSLRLSCTASGRTFTTNAMGWFRQAPGKEREFVAAISWNYDTTYYSDPVEGRFTISRDNAKNTVYLQMNSLKPEDTAVYYCFYERLAWDTSTYWGQGTQVTVS
In the case of B10, the Kd in experiment [1] worked out at 27 nM; in experiment [2], 11.2 nM.

B11: Rescue-3 (VHH)
VHH: DVQLVESGGGLVQAGDSLRLSCTASGRTFTTNAMGWFRQAPGKEREFVAAISWNSGTTYYSDPVKGRFTISRDNAKNTVYLQMNSLKPEDTAVYYCFYERLAWDTSTYWGQGTQVTVS
Regarding B11, the values for the Kd in experiment [1] and in experiment [2] were 60.6 nM and 27.1 nM, respectively.

B12: CoV2-YD-14 (VHH)
VHH: QVQLVESGGGLVQAGGSLRLSCSASGNTFSTYSLSWYRQAPGKQREFVAAISSGGSTSYANSVKGRFSISRDNAKKTMYLQMNSLKPEDTAVYYCYVVTTLMDYWGQGTQVTVS
For the molecule B12, the Kd in experiment [1] is 0.655 nM.
